Among the data in patent US20130004513A1 are % Inh2, % Inh3 and Avg. % inhibition values, retold here.

This assay deals with Human CD4 on CD4+CD25+ regulatory T cells of healthy donors (human) (UniProt P01730). Kind of assay: cell-based or functional assay.

Take Negative control (antibody): the % Inh2 is 7%, the % Inh3 turned out to be 5.2% and the Avg. % inhibition is 5.1%.
